Key:
[1] = biological target: VHR (as used in the GST pull-down) (not stated (human or mouse cDNA cloned)) (UniProt P51452)
[2] = biological target: VHR (as used in the GST pull-down) (not stated (human or mouse cDNA cloned)) (UniProt P51452); remark: listed apart in the source

Chain of UniProt P51452 (P51452 whole entry): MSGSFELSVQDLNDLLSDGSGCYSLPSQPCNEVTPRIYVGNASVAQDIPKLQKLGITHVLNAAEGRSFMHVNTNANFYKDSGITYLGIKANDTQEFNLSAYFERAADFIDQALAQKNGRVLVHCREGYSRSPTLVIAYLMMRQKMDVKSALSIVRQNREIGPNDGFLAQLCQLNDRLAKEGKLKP

GST-tagged full-length HSP70 (from UniProt P0DMV8 1-641) (natural protein)
in vitro VHR phosphatase activity with pNPP as substrate (5 μg GST-VHR with 10 μg His-HSP70, against VHR alone) [1]: 2 fold
in vitro VHR phosphatase activity with purified recombinant p-ERK2 as substrate (1 μg GST-VHR with 2 μg His-HSP70, against VHR alone) [2]: 2 fold
